Numbered stars: 1 amine (or outer) side, 2 acyl side, 3 side chain; on linkers, the order of the positions; unused ones are H or OH. Bridge positions count the residues as written; N and C are the ends. Side chains are listed from the residue outwards. Ends that are not written are not given here. * marks the point of attachment. C20 diacid = O=C(O)CCCCCCCCCCCCCCCCCCC(=O)*; γGlu = O=C(O)[C@H](CCC(=O)[*:2])N[*:1]; AEEA = NCCOCCOCC(=O)O

The source of these data is patent US20140087995A1 (published 2014).

The labels stand for the following.
B1: N^ε1-[(4S)-4-carboxy-4-(19-carboxynonadecanoylamino)butanoyl]-[Arg17,Pro21,Pro27,His34]-h-amylin (peptide)
peptide: K([γGlu-C20 diacid])CNTATCATQRLANFLRHSSPNFGAIPSSTNVGHNTY-NH2
modifications: disulfide 2-7; N-terminus assumed
SMILES: CC[C@H](C)[C@H](NC(=O)[C@H](C)NC(=O)CNC(=O)[C@H](Cc1ccccc1)NC(=O)[C@H](CC(N)=O)NC(=O)[C@@H]1CCCN1C(=O)[C@H](CO)NC(=O)[C@H](CO)NC(=O)[C@H](Cc1c[nH]cn1)NC(=O)[C@H](CCCNC(=N)N)NC(=O)[C@H](CC(C)C)NC(=O)[C@H](Cc1ccccc1)NC(=O)[C@H](CC(N)=O)NC(=O)[C@H](C)NC(=O)[C@H](CC(C)C)NC(=O)[C@H](CCCNC(=N)N)NC(=O)[C@H](CCC(N)=O)NC(=O)[C@@H](NC(=O)[C@H](C)NC(=O)[C@@H]1CSSC[C@H](NC(=O)[C@@H](N)CCCCNC(=O)CC[C@H](NC(=O)CCCCCCCCCCCCCCCCCCC(=O)O)C(=O)O)C(=O)N[C@@H](CC(N)=O)C(=O)N[C@@H]([C@@H](C)O)C(=O)N[C@@H](C)C(=O)N[C@@H]([C@@H](C)O)C(=O)N1)[C@@H](C)O)C(=O)N1CCC[C@H]1C(=O)N[C@@H](CO)C(=O)N[C@@H](CO)C(=O)N[C@H](C(=O)N[C@@H](CC(N)=O)C(=O)N[C@H](C(=O)NCC(=O)N[C@@H](Cc1c[nH]cn1)C(=O)N[C@@H](CC(N)=O)C(=O)N[C@H](C(=O)N[C@@H](Cc1ccc(O)cc1)C(N)=O)[C@@H](C)O)C(C)C)[C@@H](C)O
notes: also called compound 77
B2: N^ε1-[2-[2-[2-(19-carboxynonadecanoylamino)ethoxy]ethoxy]acetyl]-[Arg17,Pro21,Pro27,His34]-h-amylin (peptide)
peptide: K([AEEA-C20 diacid])CNTATCATQRLANFLRHSSPNFGAIPSSTNVGHNTY-NH2
modifications: disulfide 2-7; N-terminus assumed
SMILES: CC[C@H](C)[C@H](NC(=O)[C@H](C)NC(=O)CNC(=O)[C@H](Cc1ccccc1)NC(=O)[C@H](CC(N)=O)NC(=O)[C@@H]1CCCN1C(=O)[C@H](CO)NC(=O)[C@H](CO)NC(=O)[C@H](Cc1c[nH]cn1)NC(=O)[C@H](CCCNC(=N)N)NC(=O)[C@H](CC(C)C)NC(=O)[C@H](Cc1ccccc1)NC(=O)[C@H](CC(N)=O)NC(=O)[C@H](C)NC(=O)[C@H](CC(C)C)NC(=O)[C@H](CCCNC(=N)N)NC(=O)[C@H](CCC(N)=O)NC(=O)[C@@H](NC(=O)[C@H](C)NC(=O)[C@@H]1CSSC[C@H](NC(=O)[C@@H](N)CCCCNC(=O)COCCOCCNC(=O)CCCCCCCCCCCCCCCCCCC(=O)O)C(=O)N[C@@H](CC(N)=O)C(=O)N[C@@H]([C@@H](C)O)C(=O)N[C@@H](C)C(=O)N[C@@H]([C@@H](C)O)C(=O)N1)[C@@H](C)O)C(=O)N1CCC[C@H]1C(=O)N[C@@H](CO)C(=O)N[C@@H](CO)C(=O)N[C@H](C(=O)N[C@@H](CC(N)=O)C(=O)N[C@H](C(=O)NCC(=O)N[C@@H](Cc1c[nH]cn1)C(=O)N[C@@H](CC(N)=O)C(=O)N[C@H](C(=O)N[C@@H](Cc1ccc(O)cc1)C(N)=O)[C@@H](C)O)C(C)C)[C@@H](C)O
notes: also called compound 91
B3: N^ε1-[2-[2-[2-[[2-[2-[2-[[(4S)-4-carboxy-4-(19-carboxynonadecanoylamino)butanoyl]amino]ethoxy]ethoxy]acetyl]amino]ethoxy]ethoxy]acetyl]-[Arg17,Pro21,Pro27,His34 … (peptide)
peptide: K([AEEA-AEEA-γGlu-C20 diacid])CNTATCATQRLANFLRHSSPNFGAIPSSTNVGHNTY-NH2
modifications: disulfide 2-7; N-terminus assumed
SMILES: CC[C@H](C)[C@H](NC(=O)[C@H](C)NC(=O)CNC(=O)[C@H](Cc1ccccc1)NC(=O)[C@H](CC(N)=O)NC(=O)[C@@H]1CCCN1C(=O)[C@H](CO)NC(=O)[C@H](CO)NC(=O)[C@H](Cc1c[nH]cn1)NC(=O)[C@H](CCCNC(=N)N)NC(=O)[C@H](CC(C)C)NC(=O)[C@H](Cc1ccccc1)NC(=O)[C@H](CC(N)=O)NC(=O)[C@H](C)NC(=O)[C@H](CC(C)C)NC(=O)[C@H](CCCNC(=N)N)NC(=O)[C@H](CCC(N)=O)NC(=O)[C@@H](NC(=O)[C@H](C)NC(=O)[C@@H]1CSSC[C@H](NC(=O)[C@@H](N)CCCCNC(=O)COCCOCCNC(=O)COCCOCCNC(=O)CC[C@H](NC(=O)CCCCCCCCCCCCCCCCCCC(=O)O)C(=O)O)C(=O)N[C@@H](CC(N)=O)C(=O)N[C@@H]([C@@H](C)O)C(=O)N[C@@H](C)C(=O)N[C@@H]([C@@H](C)O)C(=O)N1)[C@@H](C)O)C(=O)N1CCC[C@H]1C(=O)N[C@@H](CO)C(=O)N[C@@H](CO)C(=O)N[C@H](C(=O)N[C@@H](CC(N)=O)C(=O)N[C@H](C(=O)NCC(=O)N[C@@H](Cc1c[nH]cn1)C(=O)N[C@@H](CC(N)=O)C(=O)N[C@H](C(=O)N[C@@H](Cc1ccc(O)cc1)C(N)=O)[C@@H](C)O)C(C)C)[C@@H](C)O
notes: also called compound 97
B4: N^ε1-[(4S)-4-carboxy-4-[[(4S)-4-carboxy-4-(19-carboxynonadecanoylamino)butanoyl]amino]butanoyl]-[Arg17,Pro21,Pro27,His34]-h-amylin (peptide)
peptide: K([γGlu-γGlu-C20 diacid])CNTATCATQRLANFLRHSSPNFGAIPSSTNVGHNTY-NH2
modifications: disulfide 2-7; N-terminus assumed
SMILES: CC[C@H](C)[C@H](NC(=O)[C@H](C)NC(=O)CNC(=O)[C@H](Cc1ccccc1)NC(=O)[C@H](CC(N)=O)NC(=O)[C@@H]1CCCN1C(=O)[C@H](CO)NC(=O)[C@H](CO)NC(=O)[C@H](Cc1c[nH]cn1)NC(=O)[C@H](CCCNC(=N)N)NC(=O)[C@H](CC(C)C)NC(=O)[C@H](Cc1ccccc1)NC(=O)[C@H](CC(N)=O)NC(=O)[C@H](C)NC(=O)[C@H](CC(C)C)NC(=O)[C@H](CCCNC(=N)N)NC(=O)[C@H](CCC(N)=O)NC(=O)[C@@H](NC(=O)[C@H](C)NC(=O)[C@@H]1CSSC[C@H](NC(=O)[C@@H](N)CCCCNC(=O)CC[C@H](NC(=O)CC[C@H](NC(=O)CCCCCCCCCCCCCCCCCCC(=O)O)C(=O)O)C(=O)O)C(=O)N[C@@H](CC(N)=O)C(=O)N[C@@H]([C@@H](C)O)C(=O)N[C@@H](C)C(=O)N[C@@H]([C@@H](C)O)C(=O)N1)[C@@H](C)O)C(=O)N1CCC[C@H]1C(=O)N[C@@H](CO)C(=O)N[C@@H](CO)C(=O)N[C@H](C(=O)N[C@@H](CC(N)=O)C(=O)N[C@H](C(=O)NCC(=O)N[C@@H](Cc1c[nH]cn1)C(=O)N[C@@H](CC(N)=O)C(=O)N[C@H](C(=O)N[C@@H](Cc1ccc(O)cc1)C(N)=O)[C@@H](C)O)C(C)C)[C@@H](C)O
notes: also called compound 86

One test addresses T1, human amylin receptor (amylin 3(a) receptor: human calcitonin receptor coexpressed with RAMP-3) (human, UniProt P30988 25-474; O60896 24-148).
T1 sequence (looked up) 1: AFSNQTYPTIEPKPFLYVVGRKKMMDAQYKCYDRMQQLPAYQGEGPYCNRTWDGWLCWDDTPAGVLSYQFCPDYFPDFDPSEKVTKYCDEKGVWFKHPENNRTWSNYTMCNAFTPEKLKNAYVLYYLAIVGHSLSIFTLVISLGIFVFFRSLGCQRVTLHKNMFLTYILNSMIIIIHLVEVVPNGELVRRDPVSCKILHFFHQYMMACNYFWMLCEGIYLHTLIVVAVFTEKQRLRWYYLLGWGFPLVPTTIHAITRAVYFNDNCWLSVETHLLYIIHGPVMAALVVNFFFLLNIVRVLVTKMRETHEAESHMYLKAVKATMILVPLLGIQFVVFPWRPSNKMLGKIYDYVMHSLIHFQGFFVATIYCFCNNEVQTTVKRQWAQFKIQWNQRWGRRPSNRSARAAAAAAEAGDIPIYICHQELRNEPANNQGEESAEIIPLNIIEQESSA
T1 sequence (looked up) 2: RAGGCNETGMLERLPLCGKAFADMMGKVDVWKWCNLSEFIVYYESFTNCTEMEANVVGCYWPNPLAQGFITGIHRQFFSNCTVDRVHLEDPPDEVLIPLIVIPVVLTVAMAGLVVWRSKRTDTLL
The test can be described thus: cell-based or functional assay.
On to B1, for which the “hAmylin-R funct. EC50 (pM)” value is 145 pM.

Regarding B2, the “hAmylin-R funct. EC50 (pM)” value came out at 40 pM.

In the case of B3, the “hAmylin-R funct. EC50 (pM)” value came out at 356 pM.

Consider B4, for which the “hAmylin-R funct. EC50 (pM)” value turned out to be 298 pM.

For the next test, the target named is T2, human calcitonin receptor (human, UniProt P30988 25-474).
T2 sequence (looked up): T1 sequence (looked up) 1
The test can be described thus: cell-based or functional assay.
As for B1, the “hCTR funct. EC50 (pM)” value came out at 5400 pM.

B2: the “Ratio hCT/hAmylin funct.” value came to 36.9 and the “hCTR funct. EC50 (pM)” value came to 1480 pM.

In the case of B3, the “Ratio hCT/hAmylin funct.” value was found to be 33 and the “hCTR funct. EC50 (pM)” value was 11800 pM.

On to B4, for which the “hCTR funct. EC50 (pM)” value came to 19200 pM.
